# Experiment: soluble on expression in E. coli; label from the status in PepcDB or PDB records
row,Sequence,soluble on expression in E. coli
1,MGSDKIHHHHHHMGMSSDLIKPRRPSTSGCAIHCHDCSMEALCIPFTLNNDELDKLDSIIERKKPIQKGDLIFKSGDVLKSLYAIRSGTIKSYTITEQGDEQITGFHLAGDVIGFDGIHAQRHQSFAQALETSMVCEIPYDTLDDLSGSMPKLRQQIMRLMSNEIMSDQEMILLLSKKNAEERLAAFINNLANRFGNRGFSPHEFRLTMTRGDIGNYLGLTVETISRLLGRFQKSGLIEVKGKYISIIDHSALSTLAGNARIAT,not soluble
2,MSLNRPLRIGIVVGELSGDTLGEGFIKAIRARYPDAEFVGIGGPKMNALGCQSLFDMEELAVMGLVEVLGRLPRLLKVKAELVKYFTANPPDVFVGIDAPDFNLRLELSLKQAGIKTVHYVSPSVWAWRQNRIHGIAAATHLVLAFLPFEKAFYDKFNVPCEFIGHTLADSIPLASDKLAARQLLGLDEQRRWLAVLPGSRGSEMKMLAEPFIATCQKLQARYPDLGFVVALVNAKRRAQFEQAWQQVAPELNFVLVDDTARNVITAADAVMLASGTVALECMLLKRPMVVGYRVNAFTAFLAKRLLKTPYVSLPNILAGEELVKELLQDHCTVDNLYHEVSRLLESDNQALMDKFTEMHQWIRKDADQQAAQAVLHLIQKEGHHHHHH,not soluble
3,MKDESERVSNRLPMDESREHLMVKVARMTYQQELNQSEIAAETGLNRWQVSRLLQEARDLGIVRIEIIPRSPRRPDLETALQQTFNLNDSVVVSSDGEQAQSLDTVAQAAGQYIASIKSNGATVGVSWGRTMGAVAHWLPLQWSDGGEVVQINGTVAPISGVTYHNDVAGIFARKAGARLVPLPVPAIVGQRVTREVLERDRIVADVLTKARSAQILIFSCGSLSEESVLVRSGNILRDELATLLSKGAVGDVLGRFIDVNGEIVDAELDARTIGLSLSDLKTSGKAIGIAAGSEKFNVVLGVLRAGLVNVLVTDEATATFALEHA,not soluble
4,MWQAIAKQISEVTQQPFSISERESVNGGEINDCYMISNGSQRYFVKINEKAELPIFETEIESLTQLDKSDHIFVPSPIHIGTTKEHSFLVLNYLPTKSMDKDAFYELGVSLANHHLWGDQLEYGFDCDNYLGNVLQVNTWHRRWDCFFAEQRIGWQLQLLKEKGMVLGDIDTLVKNSKLILHNHQPKPALLHGDLWHGNIALSVKGPISYDPASYWGDAECDLAMVELFGGIQDSFFEGYESISSISEGFETRQHLYSLYHVLNHCNMFGGEYMFHAQQLIDKLNLNELEHHHHHH,not soluble
5,GPGSMMEYADAYVGGGGRLRPGAQGSTTATGASRPYLEQRTVAPVTSALGQELDRLVGGTLAAQEYRDRLEALTRSVQASDEKVLNLTRLVKLSQSIQEEKEADLRRQNDELRARLKRQEQLTAQLQRQLEGMQGAVDAQALHHVVERLEGQMSACRGKQEEQWVAVQQRIGELEDRLQRASTCTAERCEERLMQLDERLQQVTQSTADATNQWAKRNFVRFKEQVDSLRADLDDVRGGQKELKSTVQSASCRAEIEYKKVLLLLQQKTKEADALTSLVEKELQHLQKVAHRHQILASKDITPAFEFDEKPYDALKFAAGEGKRRGAEAAAERRRR,not soluble
6,MSLIDILVVDDDVAVCAALRLVLKRAGYNPVIANSPDEALSIMRNPDGGCKPAVILMDMNFSLSTSGREGLELLEKMQIFTSCPVILMTAWASIPLAVEGMRLGAFDFIGKPWDNDRLLRTIDTALHLAAPSAVANPSEQSDRDTARQPKATVQENDPCAHIIGRSDAICKIKERIRRIAPTHASVLITGESGTGKELIAEALHRGSKRASAPFVKVNLGGIPESLFESELFGHKKGAFTNAFSDRKGRFELADGGTIFLDEIGELPVGNQVKLLRVLQEQTFEPLGESVSHRVDIRVVSATNASLERMVAEGRFREDLYYRINLIHLHLPPLRERQEDIQLLVEAFSEAFAQSNGLPHAVWSAEAMRRICAMPLPGNVRELKNVVERTLLLSGSREISARDVADEGHHHHHH,soluble
7,DKDNPKGLPMLSVDEPTLTMDFMVNTSPLAGTEGKFVTSRQIRDRLQKELLTNVALRVEDTADADVFRVSGRGELHLTILLENMRREGYELAVGKPRVVYRDIDGQKCEPYENLTVDVPDDNQGAVMEELGRRRGELTNMESDGNGRTRLEYHIPARGLIGFQGEFMTLTRGVGLMSHVFDDYAPVKPDMPGRHNGVLVSQEQGEAVAYALWNLEDRGRMFVSPNDKIYEGMIIGIHSRDNDLVVNPLKGKKLTNIRASGTDEAVRLTTPIKLTLEGAVEFIDDDELVEITPQSIRLRKRYLSELERRRHFKKLD,not soluble
8,MNIKRITTEADLHEALKIRRGVFIEEQHVSEADEFDEFDTLQEQCQHILVYHENQPVGTGRARIVGHTAKLERICILKPYRKYGLGKIIVSGLEEIMKEKGLTSYKLHGQTQAAGFYQKLGYQISSQEFMEDGIPHVLMTKEISRNITLEHHHHHH,not soluble
9,MAIGSKIIKPGGSDPDDFEKSIAQALVELEANSDLKPYLRDLHITRAREIEFGSKKAVIIYVPIPQQKVFQKIQIILVRELEKKFSGKHVVVIAERKILPKPTRKARNPLKQKRPRSRTLTAVYDAILEDLVFPAEIVGKRIRVKLDGSQLVKVHLDKNQQTTIEHKVDTFTSVYKKLTGRDVTFEFPDNYLNV,not soluble
10,MTTFPILRLPEKSLKIAIRCLTMEQIIKFSLISESTKRTAESLNLQADPFWICFGESVHISVHANFVENYQQDIPWNPVEVDLRTLLDHFQSVLHTNKFEYFFV,not soluble
11,GPGSMMRRVGDYEILDVVGEGAYSKVKRVRHIPTGCMFVAKIVPKTNQQVENDVRLEISILRRLKHKNIVQLIEILESTNNYYIILEPVMGGDLCDIIVGMDRPLPEQDVAALLIQLVAGVRACHRNGVAHRDLKPENLLLGTDGVLKISDFGLSRLHRESNFQASTNEYAHTLTGTLAYLAPEVFGGSYDAFRADIWSMGCIAYVLLTQNFPFGSTTDPHALEVRIRNGEVSVMPSSVSAEAKNLCKWLLSPRPEDRPTLDAVAQHDFFKRYLPAEYLRMTANRKSPIVHGANMNEFSSQVQEEAPSCSPSTATAKRKHQYVRSGSAARTSPSSSAVAGAATSSNRSSESGRDREDLVSHGTQGESDPGGYCGDV,soluble
12,MGKLAADQLTLSYDSTVIIDGVDLKIEEGKITALIGANGCGKSTILKSLARLMAPKSGTVLLEGKDIHRQPSKEVAKKLAILPQSPQAPEGLTVEELCYFGRHPHKKLLSKHTQEDHDMVEWALEATGMIELKDRTLDALSGGQRQRAWISMALAQGTDLLLLDEPTTYLDISHQIEVLELLKKLNRDHGRTVVMVLHDLNQAAQYADYLISVLDGKIYNAGTPEDVFTQPFFREVFGLECCIMRSPIDQKPMCLPTGLCPKLRAK,not soluble
13,MVRLEDYGTWDEALKRLEASRKALLALLREADPAWLSAPLREGAWTPLMVAEHVALVEDSTARVLRRLRRLAAGENLPPVPVKPGEFKDGKPQAPEGVRPKGGLSLEEVLALLDRARAFLLEEVAKADPQNPATFPHPFFGELNPLGWLRAAAYHEAHHLKALQASLPR,soluble
14,ESSRSAMMYIQELRSGLRDMHLLSCLESLRVSLNNNPVSWVQTFGAEGLASLLDILKRLHDEKEETSGNYDSRNQHEIIRCLKAFMNNKFGIKTMLETEEGILLLVRAMDPAVPNMMIDAAKLLSALCILPQPEDMNERVLEAMTERAEMDEVERFQPLLDGLKSGTSIALKVGCLQLINALITPAEELDFRVHIRSELMRLGLHQVLQELREIENEDMKVQLCVFDEQGDEDFFDLKGRLDDIRMEMDDFGEVFQIILNTVKDSKAEPHFLSILQHLLLVRNDYEARPQYYKLIEECVSQIVLHKNGTDPDFKCRHLQIDIERLVDQMIDKTKVEKSEAKATELEKKLDSELTARHELQVEMKKMENDFEQKLQDLQGEKDALDS,soluble
15,MKAFSSYDEKPPAPPIRFSSSATRENQVVGLKPLPKEPEATKKKKTMPNPFMKKNKDKKEASEKPVISRPSNFEHTIHVGYDPKTGEFTGMPEAWARLLTDSQISKQEQQQNPQAVLDALKYYTQGESSGQKWLQYDMNDAPSRTPSYGLKPQPYSTSSLPYHGNKIQDPRKMNPMTTSTSSAGYNSKQGVPPTTFSVNENRSSMPPSYAPPPVPHGETPADIVPPAIPDRPARTLSIYTKPKEEEEKIPDLSKGQFGVQARGQKAKKKMTDAEVLTKLRTIVSIGNPDRKYRKVDKIGSGASGSVYTAIEISTEAEVAIKQMNLKDQPKKELIINEILVMRENKHANIVNYLDSYLVCDELWVVMEYLAGGSLTDVVTECQMEDGIIAAVCREVLQALEFLHSRHVIHRDIKSDNILLGMDGSVKLTDFGFCAQLSPEQRKRTTMVGTPYWMAPEVVTRKQYGPKVDVWSLGIMAIEMVEGEPPYLNENPLRAIYLIATNGKPDFPGRDSMTLLFKDFVDSALEVQVENRWSASQLLTHPFLRCAKPLASLYYLIVAAKKSIAEASNS,not soluble
16,MKYGPSKDQIKQMAEEVREAAIRVKGEKELRMCPKTGHGSEWAGQLAVDANGAMNTYQPEGKYGDYGIGEDNRYLGTAKDWATLESGYQWIPGEFERYLMPEPHDFDALVDSAQKLTKDFVNVGQAKDPANVPAGTPTSVAPGTSAVDQPIRLSMGFTSDWSGHFADGFQRYLSEIPDVTRRQAVVAETLYEAAVAARDIYGAGREELGNIAKNAKLAIEGVEAGKSTGGCAGSSMATGFALIAAAATVAAGVSTLPISGPAVISGAMAAGNWTIVVGISSAIAAGSPLIPAPEKIELLASDVDGVIEKMKEALTKREKTVTDSEEAFAKKLGANSEMVEKNKVTGKDGGKSQDNAFFPRRPAMLDMSTDLKDLKDPATGFTHPVAAS,not soluble
17,MGHHHHHHSHGVSAAVTSMSVPTPIYQTSSGQYIAIAPNGALQLASPGTDGVQGLQTLTMTNSGSTQQGTTILQYAQTSDGQQILVPSNQVVVQTASGDMQTYQIRTTPSATSLPQTVVMTSPVTLTSQTTKTDDPQLKREIRLMKNREAARECRRKKKEYVKCLENRVAVLENQNKTLIEELKTLKDLYSNKS,not soluble
18,MGSDKIHHHHHHMSGKGAEYWTKRISEQEMPALSSTVKTLEKLAKDDVSSLAILGRSVMHDNALTSRILKVANSAIYNKGISHVTTVSRAAVVLGFDTIRNICITAKLLSSLLENKGLSEPVYHRLLTLMARAFQAAMLAKMMLKDHDEELQEEVFIAALLYHLGESAFWSMGGETTEQLDARLNQVDEKDANNVVREVLGTSFTQLSMGIAKNWGLGEVLVKSLSNPNERTPEIRSIYLANKISELMASDSKDIAELNHRIKQAADMLDLEVDEFKGRMIQCSHATRKLADTYGAKVLVAFLPDTHQLTLAAEPEAEPIKVREFNVDLQLKKLRELTDCAINKANFNEVITITLSGLLDGIGMDRCAVMLLSPNRKRLQPRVVLGENGDKMKNEFIVELNHDKNVFAESVDLKKPLFIDNPSSEKWRLYTDEELRRHTSVMGFMLAPILVDNKVIGLLYADRHSSERKLAEVDFERFTHFAQLTNLCLSVSVH,not soluble
19,AAMTLASQIATQLLDIKAVYLKPEDPFTWASGIKSPIYTDNRVTLSYPKTRDLIENGFVETIKAHFPEVEVIAGTATAGIPHGAIIADKMTLPFAYIRSKPKDHGAGNQIEGRVLKGQKMVIIEDLISTGGSVLDAAAAASREGADVLGVVAIFTYELPKASQNFKEAGIKLITLSNYTELIAVAKLQGYITNDGLHLLKKFKEDQVNWQQ,soluble
20,MAHHHHHHMTITLDSFNEQKVHNNQNKRKYNCRLNFKRFTKRRNNYNEDNRDSKINIKTALIKNEVISDDNDEFIDSNLMRTCHRFRLYKHSSNKIDIYYPYDKKKLDKYDYERDQTFCSLTDIEDVVNNGDDKSSKFFYYKNKSLNDYKSCFEKKNKKTKWFRLRKKKKKDHAMDESLKYLNESVCSNYKEANKNNKLDNSSKYSKNCVINTTVNGIRGFSAWIF,not soluble

# From the DeepSol protein solubility set
